Measured values published in the supplement of paper PMC7877785.
± gives the uncertainty stated by the source.

Experiment: self-splicing fitness, log relative to wild type (ln ratio); higher = more splicing; Tetrahymena group I intron in knt gene, E. coli kanamycin selection, DiMSum; sequences stand for … in CUCUCU…GGAGGGAAAAGUUAUCAGGCAUGCACCUGGUAGCUAGUCUUUAAACCAAUAGAUUGCAUCGGUUUAAAAGGCAAGACCGUCAAAUUGCGGGAAAGGGGUCAACAGCCGUUCAGUACCAAGUCUCAGGGGAAACUUUGAGAUGGCCUUGCAAAGGGUAUGGUAAUAAGCUGACGGACAUGGUCCUAACCACGCAGCCAAGUCCUAAGUCAACAGAUCUUCUGUUGAUAUGGAUGCAGUUCACAGACUAAAUGUCGGUCGGGGAAGAUGUAUUCUUCUCAUAAGAUAUAGUCGGACCUCUCCUUAAUGGGAGCUAGCGGAUGAAGUGAUGCAACACUGGAGCCGCUGGGAACUAAUUUGUAUGCGAAAGUAUAUUGAUUAGUUUUGGAGUACUCGUGGUCG
Summary of the method: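 The eight P1ex-region nucleotides of an intron in the knt kanamycin-resistance gene on pET-22b(+) were all randomised and the library put into E. coli BL21(DE3). Six replicate transformations were grown overnight at 37°C or 30°C on LB agar with or without 25 μg/mL kanamycin, together with 100 μg/mL carbenicillin, 50 μM IPTG and 0.2% rhamnose. Colonies were pooled and amplicon-sequenced on an Illumina HiSeq 2500. Fitness from DiMSum is the error-weighted combination of wild-type-normalised replicate fold changes, kanamycin over none.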

In the case of UAAGAGCAAUAUUACGUUUU, the “self-splicing fitness (ln)” value (30 °C) is reported as -3.31 ± 0.15 and the “self-splicing fitness (ln)” value (37 °C) is reported as -3.27 ± 0.2.
With UACGAGCAAUAUUACGAAGC the “self-splicing fitness (ln)” value (30 °C) was -2.71 ± 0.35 and the “self-splicing fitness (ln)” value (37 °C) was -0.927 ± 0.34.
For UACCAGCAAUAUUACGAGCA, the “self-splicing fitness (ln)” value (30 °C) was -0.673 ± 0.066 and the “self-splicing fitness (ln)” value (37 °C) was 0.225 ± 0.09.
In the case of GUUUAGCAAUAUUACGUAAC, the “self-splicing fitness (ln)” value (30 °C) is reported as -2.2 ± 0.29 and the “self-splicing fitness (ln)” value (37 °C) is reported as -1.96 ± 0.39.
With CUCGAGCAAUAUUACGCCUG the “self-splicing fitness (ln)” value (30 °C) was -3.03 ± 0.24 and the “self-splicing fitness (ln)” value (37 °C) was -2.58 ± 0.49.
In the case of GUAAAGCAAUAUUACGGAUG, the “self-splicing fitness (ln)” value (30 °C) is reported as -2.97 ± 0.24 and the “self-splicing fitness (ln)” value (37 °C) is reported as -0.613 ± 0.19.
In the case of UCGGAGCAAUAUUACGACGA, the “self-splicing fitness (ln)” value (30 °C) is reported as -1.41 ± 0.14 and the “self-splicing fitness (ln)” value (37 °C) is reported as -1.32 ± 0.16.
In the case of UAUAAGCAAUAUUACGAUAG, the “self-splicing fitness (ln)” value (30 °C) is reported as -1.4 ± 0.16 and the “self-splicing fitness (ln)” value (37 °C) is reported as -0.486 ± 0.17.
With CUACAGCAAUAUUACGCUUU the “self-splicing fitness (ln)” value (30 °C) was -3.79 ± 0.25 and the “self-splicing fitness (ln)” value (37 °C) was -2.38 ± 0.16.
In the case of GAGCAGCAAUAUUACGUGCU, the “self-splicing fitness (ln)” value (30 °C) is reported as -3.11 ± 0.2 and the “self-splicing fitness (ln)” value (37 °C) is reported as -2.2 ± 0.23.
With GCUCAGCAAUAUUACGCUUG the “self-splicing fitness (ln)” value (30 °C) was -2.04 ± 0.11 and the “self-splicing fitness (ln)” value (37 °C) was 0.227 ± 0.1.
In the case of CUUCAGCAAUAUUACGCAGA, the “self-splicing fitness (ln)” value (30 °C) is reported as -3.44 ± 0.37 and the “self-splicing fitness (ln)” value (37 °C) is reported as -2.18 ± 0.22.
For UGAGAGCAAUAUUACGAUCU, the “self-splicing fitness (ln)” value (30 °C) was -2.49 ± 0.45 and the “self-splicing fitness (ln)” value (37 °C) was -1.1 ± 0.45.
In the case of GGAUAGCAAUAUUACGUGGA, the “self-splicing fitness (ln)” value (30 °C) is reported as -3.31 ± 0.21 and the “self-splicing fitness (ln)” value (37 °C) is reported as -2.47 ± 0.21.
For ACCUAGCAAUAUUACGCUGA, the “self-splicing fitness (ln)” value (30 °C) was -1.59 ± 0.082 and the “self-splicing fitness (ln)” value (37 °C) was -0.127 ± 0.09.
In the case of AGGUAGCAAUAUUACGUGUC, the “self-splicing fitness (ln)” value (30 °C) is reported as -3.313 ± 0.024 and the “self-splicing fitness (ln)” value (37 °C) is reported as -2.07 ± 0.037.
For GUGAAGCAAUAUUACGACCC, the “self-splicing fitness (ln)” value (30 °C) was -1.04 ± 0.43 and the “self-splicing fitness (ln)” value (37 °C) was 0.469 ± 0.33.
With CUCGAGCAAUAUUACGUGGC the “self-splicing fitness (ln)” value (37 °C) was -0.934 ± 0.32.
With AAAAAGCAAUAUUACGACAU the “self-splicing fitness (ln)” value (30 °C) was 0.00477 ± 0.011 and the “self-splicing fitness (ln)” value (37 °C) was 0.11 ± 0.032.
For GCCCAGCAAUAUUACGUUGC, the “self-splicing fitness (ln)” value (30 °C) was -1.11 ± 0.063 and the “self-splicing fitness (ln)” value (37 °C) was -0.368 ± 0.094.
In the case of UUCAAGCAAUAUUACGUUGG, the “self-splicing fitness (ln)” value (30 °C) is reported as -2.28 ± 0.17 and the “self-splicing fitness (ln)” value (37 °C) is reported as -1.66 ± 0.24.
In the case of AGCAAGCAAUAUUACGUGGG, the “self-splicing fitness (ln)” value (30 °C) is reported as -3.44 ± 0.12 and the “self-splicing fitness (ln)” value (37 °C) is reported as -2.37 ± 0.16.
In the case of GGUAAGCAAUAUUACGUUCC, the “self-splicing fitness (ln)” value (30 °C) is reported as -2.47 ± 0.18 and the “self-splicing fitness (ln)” value (37 °C) is reported as -2.85 ± 0.24.
For CGCUAGCAAUAUUACGUUGG, the “self-splicing fitness (ln)” value (30 °C) was -4 ± 0.23 and the “self-splicing fitness (ln)” value (37 °C) was -2.24 ± 0.19.
In the case of AUUAAGCAAUAUUACGCUAU, the “self-splicing fitness (ln)” value (30 °C) is reported as -3.62 ± 0.26 and the “self-splicing fitness (ln)” value (37 °C) is reported as -1.73 ± 0.26.
With ACAUAGCAAUAUUACGAAAU the “self-splicing fitness (ln)” value (30 °C) was -3.43 ± 0.19 and the “self-splicing fitness (ln)” value (37 °C) was -2.75 ± 0.26.
With AGUGAGCAAUAUUACGCGUG the “self-splicing fitness (ln)” value (30 °C) was -4.06 ± 0.28 and the “self-splicing fitness (ln)” value (37 °C) was -2.34 ± 0.15.
In the case of GUUCAGCAAUAUUACGCAAG, the “self-splicing fitness (ln)” value (30 °C) is reported as -0.984 ± 0.093 and the “self-splicing fitness (ln)” value (37 °C) is reported as -0.654 ± 0.12.
In the case of CAAUAGCAAUAUUACGUCGC, the “self-splicing fitness (ln)” value (30 °C) is reported as -4.1 ± 0.36 and the “self-splicing fitness (ln)” value (37 °C) is reported as -2.56 ± 0.29.
In the case of AGCAAGCAAUAUUACGAUGC, the “self-splicing fitness (ln)” value (30 °C) is reported as -2.08 ± 0.11 and the “self-splicing fitness (ln)” value (37 °C) is reported as -1.71 ± 0.14.
For ACAUAGCAAUAUUACGGCAC, the “self-splicing fitness (ln)” value (30 °C) was -1.56 ± 0.11 and the “self-splicing fitness (ln)” value (37 °C) was -1.2 ± 0.15.
For CAGCAGCAAUAUUACGCAUG, the “self-splicing fitness (ln)” value (30 °C) was -3.11 ± 0.16 and the “self-splicing fitness (ln)” value (37 °C) was -2.42 ± 0.16.
In the case of UACCAGCAAUAUUACGAUCU, the “self-splicing fitness (ln)” value (30 °C) is reported as -1.77 ± 0.13 and the “self-splicing fitness (ln)” value (37 °C) is reported as -1.08 ± 0.16.
With GUCGAGCAAUAUUACGCGCU the “self-splicing fitness (ln)” value (30 °C) was -2.6 ± 0.3 and the “self-splicing fitness (ln)” value (37 °C) was -1.17 ± 0.32.
For CUAAAGCAAUAUUACGGCAG, the “self-splicing fitness (ln)” value (30 °C) was -0.0254 ± 0.076 and the “self-splicing fitness (ln)” value (37 °C) was -0.422 ± 0.098.
For AGAAAGCAAUAUUACGUGCA, the “self-splicing fitness (ln)” value (30 °C) was -0.717 ± 0.079 and the “self-splicing fitness (ln)” value (37 °C) was -0.292 ± 0.099.
In the case of CUGAAGCAAUAUUACGUGGU, the “self-splicing fitness (ln)” value (30 °C) is reported as -3.3 ± 0.15 and the “self-splicing fitness (ln)” value (37 °C) is reported as -1.41 ± 0.18.
In the case of GUUCAGCAAUAUUACGAGCG, the “self-splicing fitness (ln)” value (30 °C) is reported as -2.03 ± 0.13 and the “self-splicing fitness (ln)” value (37 °C) is reported as -1.31 ± 0.15.
With GCUGAGCAAUAUUACGGAAU the “self-splicing fitness (ln)” value (30 °C) was -3.57 ± 0.25 and the “self-splicing fitness (ln)” value (37 °C) was -1.3 ± 0.17.
With CUAAAGCAAUAUUACGCACA the “self-splicing fitness (ln)” value (30 °C) was -2.11 ± 0.16 and the “self-splicing fitness (ln)” value (37 °C) was -2.11 ± 0.27.
For AUUUAGCAAUAUUACGAUGA, the “self-splicing fitness (ln)” value (30 °C) was -1.8 ± 0.14 and the “self-splicing fitness (ln)” value (37 °C) was -0.68 ± 0.15.
With AAAGAGCAAUAUUACGUGCA the “self-splicing fitness (ln)” value (30 °C) was -2.3 ± 0.14 and the “self-splicing fitness (ln)” value (37 °C) was -1.19 ± 0.13.
For CCUGAGCAAUAUUACGCAUA, the “self-splicing fitness (ln)” value (30 °C) was -3.03 ± 0.32 and the “self-splicing fitness (ln)” value (37 °C) was -2.83 ± 0.47.
In the case of CAUCAGCAAUAUUACGUGGG, the “self-splicing fitness (ln)” value (30 °C) is reported as -1.9 ± 0.075 and the “self-splicing fitness (ln)” value (37 °C) is reported as -1.71 ± 0.1.
In the case of ACCAAGCAAUAUUACGAUAC, the “self-splicing fitness (ln)” value (30 °C) is reported as -2.83 ± 0.32 and the “self-splicing fitness (ln)” value (37 °C) is reported as -1.99 ± 0.3.
For CGACAGCAAUAUUACGGAUU, the “self-splicing fitness (ln)” value (30 °C) was -3.77 ± 0.17 and the “self-splicing fitness (ln)” value (37 °C) was -1.73 ± 0.099.
In the case of UGCUAGCAAUAUUACGGGGU, the “self-splicing fitness (ln)” value (30 °C) is reported as -2.82 ± 0.21 and the “self-splicing fitness (ln)” value (37 °C) is reported as -2.09 ± 0.21.
